Consider 1 substance from patent US20220040290A1.

The target in this assay is stabilized CH505 TF ch.SOSIP trimer (E64K/A316W) (HIV-1). The assay is described as follows: method not stated.

On to “unmutated common ancestor (UCA) of the CH103 B cell lineage (antibody)”, for which the Kd (in general, the constant that tells how readily two partners part at equilibrium) stood at 171 nM.
